According to patent publication US12018084B2, “Anti-CXCR2 antibodies and uses thereof” (Cephalon LLC, priority 2018, dated 2024):
Positions count from the first letter of the chain named. Several values for one entry are separate records, joined by “and”; a condition that tells them apart may be missing. Equal entries are not always repeated.

T1: Murine CXCR2 (Mus musculus, UniProt P35343)
T1 construct: expressed in transfected cells
T1 sequence (P35343 1-359): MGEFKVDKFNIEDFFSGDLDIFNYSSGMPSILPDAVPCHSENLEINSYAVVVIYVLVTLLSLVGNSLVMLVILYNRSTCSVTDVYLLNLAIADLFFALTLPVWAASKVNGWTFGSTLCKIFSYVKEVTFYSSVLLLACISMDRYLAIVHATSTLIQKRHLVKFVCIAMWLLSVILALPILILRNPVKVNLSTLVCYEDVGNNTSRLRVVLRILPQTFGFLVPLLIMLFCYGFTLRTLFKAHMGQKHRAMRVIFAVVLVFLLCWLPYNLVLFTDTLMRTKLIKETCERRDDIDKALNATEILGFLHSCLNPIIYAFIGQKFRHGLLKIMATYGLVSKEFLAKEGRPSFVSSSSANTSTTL

T2: Human CXCR2 (Homo sapiens, UniProt P25025)
T2 sequence (P25025 1-360): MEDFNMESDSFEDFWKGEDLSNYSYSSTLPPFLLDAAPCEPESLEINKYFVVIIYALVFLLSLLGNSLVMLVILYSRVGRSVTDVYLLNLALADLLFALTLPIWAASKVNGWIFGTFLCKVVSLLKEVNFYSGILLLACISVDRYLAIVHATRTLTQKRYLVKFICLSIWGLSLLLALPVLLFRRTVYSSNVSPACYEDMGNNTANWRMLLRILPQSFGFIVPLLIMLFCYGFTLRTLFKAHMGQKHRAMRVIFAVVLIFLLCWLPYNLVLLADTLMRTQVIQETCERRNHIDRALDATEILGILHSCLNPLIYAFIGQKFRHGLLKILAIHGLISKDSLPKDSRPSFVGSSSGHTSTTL

B1: BKO-4A8: parental anti-CXCR2 antibody, VH SEQ ID NO: 17, VL SEQ ID NO: 18 (antibody, V domains shown)
VH: EVQLLESGGGLVQPGGSLRLSCAASGFTFSSSTMSWVRQAPGKGLEWVSAISGRGRNTYYADSVKGRFTISRDNSRNTLYLQMNSLRAEDTAVYYCAIQMGYWGQGILVTVSS
VL: QSALTQPPSASGSPGQSVTISCIGTSSDVGGYNYVSWYQQHPDKAPKLMIYEVNKRPSGVPDRFSGSKSGNTASLTVSGLQAEDEADYYCSSYAGNNNFGVFGGGTKLTVL
modifications: BKO_4A8_VH; BKO_4A8_VL
B2: 101c: VH SEQ ID NO: 108, VL SEQ ID NO: 110; renamed BKO-4A8-101c (antibody, V domains shown)
VH: B1 VH with M34Q, A40P, N57S, R76K, M100A
VL: B1 VL with D43G, N54S, N96S
modifications: 4A8 VH Variant 101 M34Q_A40P_N56S_R75K_M96A; 4A8 VL variant c D41G_N52S_N94S
notes: renamed BKO-4A8-101c

Experiments:
Murine CXCR2 = target: T1, Murine CXCR2; test: cELISA of hybridoma supernatants on cells transfected with murine CXCR2; assay type: binding; settings: hybridoma supernatant; fluorescence units relative to positive control (100%)
[1] = test system: native cynomolgus CXCR2 expressed by cynomolgus neutrophils; test: Flow cytometry binding to cynomolgus blood neutrophils; parameters: species or system cynomolgus monkey; settings: FIG. 2, MFI
Description: Whole human buffy coat, PBMC enriched fractions prepared from human peripheral blood buffy coat or cynomolgus monkey whole blood was used for analysis of antibody binding activity by flow cytometry. Briefly, blood was untreated or diluted 1:1 in sterile filtered room temperature phosphate-buffered saline (PBS). 30 mL samples were layered over 15 mL Lymphoprep™ (Stem Cell Technologies, cat #07851). Peripheral blood mononuclear cells (PBMC) were enriched by room temperature centrifugation at 700 g for 30 minutes with no braking. The PBMC layer was isolated and cells washed in PBS containing 2 mM EDTA with low speed centrifugation at 200 g, to remove platelet contamination. Whole blood or PBMC enriched cell fractions were resuspended in red blood cell lysing solution (BioLegend, 420301). Viable cell counts were determined and cells resuspended at 1×10^7 cells per mL in FACS buffer (1×PBS+0.5% (w/v) BSA+2 mM EDTA pH 7.2).
Flow cytometry binding assays using whole blood or PBMC enriched preparations: Binding assays to detect CXCR2 on blood neutrophil populations using test antibodies were performed essentially as described for assays using transiently transfected Expi293F™ cells. Binding of antibodies to human CXCR2 on the surface of the neutrophils was measured using anti-CXCR2 antibody directly conjugated to the fluorophore allophycocyanin (APC). Matched isotype control antibodies were included for comparison. Cells were incubated with lineage specific antibodies and 2 μg/ml of APC conjugated anti-CXCR2 antibody or isotype control prepared in ice cold 3% BSA/PBS for a minimum of 30 minutes at 4° C. The commercial anti-CXCR2 antibody (clone 48331 (R&D Systems FAB331A)) was used as a positive control. […] The level of fluorescence on the cell surface was measured by flow cytometry. Using this method, test anti-CXCR2 antibodies were detected binding neutrophils from both human and cynomolgus monkey.

Human CXCR2 = target: T2, Human CXCR2; test: Flow cytometry binding assay, Expi293F cells transiently transfected with human CXCR2; parameters: host or cells: Expi293F cells, vector pTT5
Description: For each 10 mL transfection, lipid-DNA complexes were prepared by diluting 10 μg of plasmid DNA in Opti-MEM™ I Reduced Serum Medium (Cat. no. 31985-062) to a total volume of 1.0 mL. 54 μL of ExpiFectamine™ 293 Reagent was diluted in Opti-MEM™ I medium to a total volume of 1.0 mL. Transfections were carried out according to manufacturer's instructions. The cells were incubated in a 37° C. incubator with a humidified atmosphere of 8% CO2 in air on an orbital shaker rotating at 200 rpm. Approximately 18-24 hours post-transfection, the cell viability was evaluated and transfected cells harvested for use.
Harvested cells were resuspended in FACS buffer (1×PBS+0.5% (w/v) bovine serum albumin (BSA)+2 mM EDTA pH 7.2). Approximately 2×10^5 cells were added per well in a 96-well round-bottomed plate. Cells were pelleted by centrifugation at 400 g for 5 mins at 4° C. and supernatants discarded. 25 μL of each test antibody or control antibody was added to the cells and incubated for 30 minutes at 4° C. Cells were washed twice in 100 μL FACS buffer followed by centrifugation at 400 g for 5 mins at 4° C.
For detection, 50 μL of secondary antibody (Table 2) was added to relevant samples. Commercially available antibodies that bound to transfected CXCR family members were used as positive controls to ensure that the cells were expressing the receptors. Cells were washed twice in 200 μL of FACS buffer followed by centrifugation at 400 g for 5 mins at 4° C. Before sample acquisition, cells were resuspended in 100 μL of FACS buffer. Samples were acquired using the high throughput sampler on a FACSCanto™ II cytometer (Beckton-Dickinson).
Binding of BKO-4A8 and variants thereof was detected by incubation of fluorochrome-conjugate anti-human IgG light chain lambda antibody. The binding activity of antibodies tested, quantified as mean fluorescent intensity, was independent of the antibody Fc region as illustrated in FIG. 9.

cynomolgus monkeys = test: LPS induced acute lung inflammation in cynomolgus monkey; assay type: in vivo
Description: Biologics naïve (i.e. not previously administered exogenous biologics) male cynomolgus monkeys were randomized into groups receiving vehicle or the anti-CXCR2 antibody BKO-4A8-101c administered by intravenous administration at a dose of 1 mg/kg on days 0, 14, and 28. One hour post-treatment of test antibodies on day 0, animals were exposed to aerosolized bacterial lipopolysaccharide (LPS) by inhalation of 20 μg/L for 5 mins (total dose 20 μg/kg). This is a well-established model of acute lung inflammation. Inflammatory responses were characterized at 24 hours after LPS exposure by total and differential cell counts of bronchoalveolar lavage fluid of the left lung and compared to matched counts from naïve animals at pre-treatment day 14. Blood was collected at various time points for differential cell count and serum collected for pharmacokinetic analysis.

[2] = 1 mg/kg intravenous days 0, 14, 28

Sequence of native cynomolgus CXCR2 expressed by cynomolgus neutrophils (as listed by the source): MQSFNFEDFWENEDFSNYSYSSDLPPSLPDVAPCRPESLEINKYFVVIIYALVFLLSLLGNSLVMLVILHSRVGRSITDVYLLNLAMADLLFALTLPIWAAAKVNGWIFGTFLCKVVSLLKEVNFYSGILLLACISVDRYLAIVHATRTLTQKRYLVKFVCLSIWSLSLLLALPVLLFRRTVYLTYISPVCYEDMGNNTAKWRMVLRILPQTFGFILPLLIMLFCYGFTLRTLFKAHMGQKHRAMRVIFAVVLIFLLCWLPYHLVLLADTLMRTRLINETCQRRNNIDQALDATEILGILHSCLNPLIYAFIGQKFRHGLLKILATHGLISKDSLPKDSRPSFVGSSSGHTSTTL

Molecule | Murine CXCR2 % Positive (Murine CXCR2) | binding to native cynomolgus CXCR2 on cynomolgus PBMCs / neutrophils [1] | Max binding (MFI) (Human CXCR2; combinatorial variants with light chain c, listed as 4A8 Control) | EC50 (Human CXCR2; combinatorial variants, Table 11) | LPS-induced pulmonary neutrophilia (cynomolgus monkeys; 1 mg/kg intravenous 1 hour before LPS, BAL 24 hours after LPS) | blood neutrophil counts following repeat dosing (cynomolgus monkeys; [2]) | tolerability, body weight (cynomolgus monkeys; [2])
B1 | 5% | high binding activity | 62074 MFI and 82797 MFI | 0.4 nM | – | – | –
B2 | – | – | – | – | markedly inhibited | did not induce measurable changes | well tolerated with no loss in body weight
